Source: article PMC3252277

Tests used:
[1] = molecular target: C-terminal recombinant ADAMTS-10 polypeptide (human) (UniProt Q9H324); assay: SPR; data not shown; N-terminal fibrillin-1 polypeptide with the C-terminal end of ADAMTS-10
[2] = molecular target: fibrillin-1 N-terminal half (Homo sapiens) (UniProt P35555); conditions: cited from earlier work
[3] = molecular target: C-terminal recombinant ADAMTS-10 polypeptide (human) (UniProt Q9H324); assay: SPR; C-terminal end of ADAMTS-10 coupled to a chip; soluble C-terminal ADAMTSL-3 at 80-0 nM; 25°C, HBS-EP buffer

Sequence of UniProt Q9H324 (Q9H324 26-1103): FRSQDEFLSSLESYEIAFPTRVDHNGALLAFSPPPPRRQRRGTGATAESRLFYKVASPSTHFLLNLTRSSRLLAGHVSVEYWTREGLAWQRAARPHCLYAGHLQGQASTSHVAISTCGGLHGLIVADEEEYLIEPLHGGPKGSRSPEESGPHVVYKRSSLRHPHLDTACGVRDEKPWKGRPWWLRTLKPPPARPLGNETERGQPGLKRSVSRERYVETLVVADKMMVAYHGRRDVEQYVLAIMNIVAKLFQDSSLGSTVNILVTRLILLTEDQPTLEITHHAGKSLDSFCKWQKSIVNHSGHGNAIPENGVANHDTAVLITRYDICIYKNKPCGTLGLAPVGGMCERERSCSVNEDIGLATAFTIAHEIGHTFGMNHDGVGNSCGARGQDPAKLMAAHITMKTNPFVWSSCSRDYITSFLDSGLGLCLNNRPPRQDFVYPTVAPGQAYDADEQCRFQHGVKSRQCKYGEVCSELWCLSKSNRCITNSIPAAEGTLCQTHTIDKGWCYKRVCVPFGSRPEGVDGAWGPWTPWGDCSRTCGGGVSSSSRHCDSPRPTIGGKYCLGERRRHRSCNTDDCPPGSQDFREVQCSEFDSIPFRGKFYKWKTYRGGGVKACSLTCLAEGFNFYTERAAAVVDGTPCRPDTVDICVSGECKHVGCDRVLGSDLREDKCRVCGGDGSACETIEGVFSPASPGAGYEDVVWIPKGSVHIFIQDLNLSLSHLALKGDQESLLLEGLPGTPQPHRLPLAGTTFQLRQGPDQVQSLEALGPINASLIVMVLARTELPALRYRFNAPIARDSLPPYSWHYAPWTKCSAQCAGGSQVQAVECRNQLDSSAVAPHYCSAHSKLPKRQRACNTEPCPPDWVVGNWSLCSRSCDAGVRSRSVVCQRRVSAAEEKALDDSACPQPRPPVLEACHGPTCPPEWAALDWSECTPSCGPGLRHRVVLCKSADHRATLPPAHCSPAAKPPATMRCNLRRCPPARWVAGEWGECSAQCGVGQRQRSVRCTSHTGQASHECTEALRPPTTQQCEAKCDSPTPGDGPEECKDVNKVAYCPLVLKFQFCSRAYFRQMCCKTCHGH
Sequence of UniProt P35555 (P35555 45-1527): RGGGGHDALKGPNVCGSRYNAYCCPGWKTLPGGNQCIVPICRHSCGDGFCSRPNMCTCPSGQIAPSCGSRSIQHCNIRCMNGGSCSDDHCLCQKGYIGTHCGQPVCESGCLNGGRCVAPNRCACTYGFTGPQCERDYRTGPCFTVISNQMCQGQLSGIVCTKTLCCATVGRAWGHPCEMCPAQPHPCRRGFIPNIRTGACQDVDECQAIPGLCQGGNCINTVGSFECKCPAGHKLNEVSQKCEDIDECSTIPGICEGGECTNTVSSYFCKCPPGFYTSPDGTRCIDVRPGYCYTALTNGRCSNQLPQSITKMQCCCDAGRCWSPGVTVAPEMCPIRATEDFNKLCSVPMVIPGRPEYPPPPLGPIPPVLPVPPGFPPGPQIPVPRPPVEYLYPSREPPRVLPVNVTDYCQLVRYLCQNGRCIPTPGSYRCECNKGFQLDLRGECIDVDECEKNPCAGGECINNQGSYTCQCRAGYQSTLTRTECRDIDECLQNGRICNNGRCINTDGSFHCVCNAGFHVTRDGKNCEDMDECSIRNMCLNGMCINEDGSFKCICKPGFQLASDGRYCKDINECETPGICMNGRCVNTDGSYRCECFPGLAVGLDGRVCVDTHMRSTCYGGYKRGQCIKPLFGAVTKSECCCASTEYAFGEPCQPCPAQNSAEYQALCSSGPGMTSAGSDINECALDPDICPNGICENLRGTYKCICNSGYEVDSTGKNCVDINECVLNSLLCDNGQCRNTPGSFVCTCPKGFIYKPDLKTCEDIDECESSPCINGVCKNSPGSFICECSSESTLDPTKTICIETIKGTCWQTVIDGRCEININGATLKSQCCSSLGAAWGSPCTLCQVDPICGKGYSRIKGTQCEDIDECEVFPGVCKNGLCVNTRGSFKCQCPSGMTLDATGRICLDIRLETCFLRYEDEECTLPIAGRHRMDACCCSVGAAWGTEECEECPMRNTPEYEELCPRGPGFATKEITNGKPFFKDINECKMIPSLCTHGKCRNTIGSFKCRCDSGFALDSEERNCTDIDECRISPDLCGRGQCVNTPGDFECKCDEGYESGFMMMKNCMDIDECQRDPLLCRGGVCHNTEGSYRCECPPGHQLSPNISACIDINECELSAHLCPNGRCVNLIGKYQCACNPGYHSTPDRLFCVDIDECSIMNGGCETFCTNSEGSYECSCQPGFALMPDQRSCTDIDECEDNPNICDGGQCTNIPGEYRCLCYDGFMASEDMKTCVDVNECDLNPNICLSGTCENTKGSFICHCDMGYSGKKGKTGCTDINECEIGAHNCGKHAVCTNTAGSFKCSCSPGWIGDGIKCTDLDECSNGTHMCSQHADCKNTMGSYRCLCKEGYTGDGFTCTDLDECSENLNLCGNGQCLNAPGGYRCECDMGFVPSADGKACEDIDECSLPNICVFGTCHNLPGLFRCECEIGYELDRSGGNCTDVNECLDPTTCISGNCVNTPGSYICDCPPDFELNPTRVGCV

## rF90, recombinant N-terminal half of wildtype fibrillin-1 (from UniProt P35555 25-2871) (domain or fragment)
[1]
  Kd: 450 nM

## ADAMTSL-6 (from UniProt Q6ZMP0)
[2]
  Kd: 80 nM

## C-terminal ADAMTSL-3 polypeptide (domain or fragment)
[3]
  Kd: 2 nM
